Tests used:
HLA-DRB1*03, 04 and 13 = experiment: Minimal epitope analysis with 11-mer peptides; type: cell-based, human; settings: data not shown
Text: To evaluate the utility of the Crf1 p41 epitope for potential clinical application, we defined the HLA restriction of Crf1 p41-specific CD4^+ T clones from different donors by stimulation with peptide-pulsed partially matched LCLs. […] As presentation of the Crf1 p41 peptide could also be mediated by other MHC class II alleles, we verified the HLA restriction by stimulation of PBMC from additional donors.
A peptide library covering the complete Crf1 sequence consisting of 94 15-mer peptides overlapping by […] (aa) was divided into sub-pools of 10 peptides and 94 single peptides (p1-p94) (PANATecs). 3 11-mer peptides of p40/41 overlapping by 2aa ([…], […], HTYTIDWTKDA) were obtained from JPT Peptide Technologies.

[1] = molecular target: PE-conjugated Crf1 p41-specific HLA-DRB1*0401 MHC class II tetramer (Aspergillus fumigatus; human); experiment: flow cytometry, tetramer staining of T-cell lines expanded for 14 days
[2] = molecular target: recombinant A. fumigatus Crf1 protein with FLAG-Tag (Aspergillus fumigatus)
[3] = molecular target: recombinant A. fumigatus secreted protein peptidase (Aspergillus fumigatus)
[4] = tested on: T-cell lines from PBMC of healthy donors; experiment: IFN-γ ELISA of T-cell lines stimulated with recombinant A. fumigatus proteins; type: cell-based, human; settings: 5 μg/ml protein
Text: As the identification of potential protective fungal antigens is rather intricate due to the extensiveness of fungal genomes, we analyzed 6 different A. fumigatus recombinant proteins based on their previously reported immunogeneic reactivity in mice and humans^7,10. […] By contrast, GPI-anchored extracellular cell wall glucanase Crf1 and secreted protein peptidase induced high IFN-γ in 6 of 7 and 5 of 10 tested donors, respectively. The response was mediated by CD4^+ TH1 cells, as MHC class II blocking antibody nearly abrogated IFN-γ release (data not shown). Due to the broad response and the sequence similarity to the C. albicans orthologue Crh1, we focused in subsequent experiments on the protein Crf1. By epitope mapping of 7 healthy individuals with different MHC class II alleles, we identified 10 potential candidate epitopes (Table 1). Based on the results obtained by epitope mapping, the probability of antigen presentation by certain MHC class II alleles assessed by epitope prediction^11, previously reported immunogeneic reactivity^12 and sequence similarity to the C. albicans homologue Crh1, we then generated CD4^+ TH1 T-cell clones specific for the peptides p1, p22, p27, p41, p48, p59, p69 and p84 (FIG. 1a and Table 1).
A. fumigatus superoxide dismutase^34, catalase^35, peptidase^36 and 1,3-beta-glucanosyl-transferase Gel1^30 were produced in the yeast Pichia pastoris as described^37. Extracellular cell wall glucanase Crf1^37 (cDNA provided by Utz Reichard) and the major allergen and cytotoxin AspF1^10 were expressed with FLAG-Tags in the human cell line phoenix GALV^38.
For analysis of recombinant proteins and epitope mapping, T-cell lines were generated by incubation of 1×10^7 PBMC per well in 6-well cell culture plates with 5 μg/ml protein or peptide for 7d in the presence of 5 U/ml IL-2 (Proleukin, Chiron). Antigen specificity was analyzed by IFN-γ ELISA^42 after restimulation with autologous monocytes incubated overnight with 5 μg/ml protein in a responder to stimulator (R:S) ratio of 5:1. Epitope mapping was performed by IFN-γ ELISPOT^39 after stimulation with peptide-pulsed autologous DC at a R:S ratio of 10:1.

C. albicans = experiment: Vaccination of mice before intragastric C. albicans infection; type: in vivo, BALB/c mice
Experimental: A. fumigatus Crf1 protein mediates cross-protection to C. albicans. Mice were injected intranasally with resting A. fumigatus conidia 14 days before infection, or with purified Crf1 protein and murine CpG oligodeoxynucleotide 1862 14, 7 and 3 days before intragastric infection with C. albicans. Note (a) the reduced inflammatory cell recruitment and acanthosis in mice vaccinated with A. fumigatus conidia or Crf1 protein as opposed to control mice shown in FIG. 5a and c and (b) the increase in protective TH1 and regulatory T-cell transcription factors and cytokine levels. Shown are fungal growth (CFU/organ, mean±SE), stomach histology and transcription factor and cytokine mRNA expression in CD4^+ T-cells from mesenteric lymph nodes a week after infection with C. albicans. Shown are results pooled from 2 experiments (6 animals/group). Bars indicate SE. P, vaccinated animals versus control. (c) Proliferation of purified CD4^+ spleen cells from untreated mice or animals vaccinated with A. fumigatus or C. albicans in response to control DC, anti-CD3E antibody, heat-inactivated A. fumigatus or C. albicans or A. fumigatus Crf1 p41 and p22 peptide. The results are expressed as mean cpm±SEM of triplicate cultures. P, stimulated versus control DC.
Mice were infected with 2×10^7 resting A. fumigatus conidia intranasally^7,45 and with 10^8C. albicans intragastrically^13. For co-infection, mice were infected a week before the subsequent infection. In the vaccination model, mice were injected intranasally with 2×10^7 Aspergillus resting conidia/20 μl saline once, 14d before infection, or with 5 μg purified Crf1p antigen^7 and 10 nM murine CpG oligodeoxynucleotide 1862, administered 14 d, 7 d and 3 d before intragastric C. albicans infection^7. Mice were monitored for survival (MST, days) and fungal growth (CFU/organ expressed as mean±SE). Mice dying of fungal challenge routinely underwent necropsy for histopathological confirmation of infection^7. […]

## HTYTIDWTKDA (peptide of A. fumigatus Crf1)
HLA-DRB1*03, 04 and 13
  Minimal epitope: is the minimal epitope of Crf1 p41 for all 3 HLA alleles

## Crf1 p41-specific CD4^+ T-cell lines expanded for 14 days (cells without a defined receptor)
[1]
  frequency of antigen-specific cells as determined by tetramer (median): 50.6%

## T-cell lines from PBMC of healthy donors, raised with the respective recombinant A. fumigatus protein (cells without a defined receptor)
[2]
  IFN-γ (ELISA) (of 7 tested donors): 6
[3]
  IFN-γ (ELISA) (of 10 tested donors): 5

B1: Crf1: recombinant A. fumigatus GPI-anchored extracellular cell wall glucanase Crf1; given with CpG oligodeoxynucleotide 1862 in mice (protein)
chain: QTWSKCNPLEKTCPPNKGLAASTYTADFTSASALDQWEVTAGKVPVGPQGAEFTVAKQGDAPTIDTDFYFFFGKAEVVMKAAPGTGVVSSIVLESDDLDEVDWEVLGGDTTQVQTNYFGKGDTTTYDRGTYVPVATPQETFHTYTIDWTKDAVTWSIDGAVVRTLTYNDAKGGTRFPQTPMRLRLGSWAGGDPSNPKGTIEWAGGLTDYSAGPYTMYVKSVRIENANPAESYTYSDNSGSWQSIKFDGSVDISSSSSVTSSTTSTASSASSTSSKTPSTSTLATSTKATPTPSGTSSGSNSSSSAEPTTTGGTGSSNTGSGSGSGSGSGSSSSTGSSTSAGASATPELSQG
[4]
  donors with high IFN-γ of tested donors: 6 of 7
C. albicans; a week after infection with C. albicans
  Tbet/Foxp3 CD4+ T-cells and cytokines in mesenteric lymph nodes: activation of Tbet^+/Foxp3^+ CD4^+T-cells and their respective cytokines, IFN-γ and IL-10, in mesenteric lymph nodes
C. albicans; vaccinated mice
  Protection against lethal infection: protected against lethal infection with C. albicans
C. albicans; vaccination intranasally before intragastric C. albicans infection, Crf1 protein with CpG as adjuvant
  Fungal burden and inflammatory pathology in the stomach: both vaccination strategies reduced the fungal burden and inflammatory pathology in the stomach of mice with candidiasis
